These results are taken from patent US20050124803A1.

Assay [1] has as its target Ae. aegypti BBMV (brush border membrane vesicles of Aedes aegypti larvae; toxin receptors on them not identified) (Aedes aegypti). Briefly: saturation binding of 125I-toxin to BBMV, Hill fit.
The target of assay [2] is An. quadrimaculatus BBMV (brush border membrane vesicles of Anopheles quadrimaculatus larvae; toxin receptors on them not identified) (Anopheles quadrimaculatus). As to the kind of experiment: saturation binding of 125I-toxin to BBMV, Hill fit.
The target of assay [3] is Cx. quinquefasciatus BBMV (brush border membrane vesicles of Culex quinquefasciatus larvae; toxin receptors on them not identified) (Culex quinquefasciatus). As to the kind of experiment: saturation binding of 125I-toxin to BBMV, Hill fit.
Assay [4] has the same target. As to the kind of experiment: saturation binding of 125I-toxin to BBMV, Hill fit (repeats Table 3). Set-up: Bmax: unit not given here.
The target is the same in assay [5]. Briefly: saturation binding of 125I-toxin to BBMV, Hill fit. Set-up: Bmax: unit not given here.

B1: 4BRA (Cry4Ba with R203 mutated to A, trypsin-activated toxin) (protein)
chain: AINSSSVSTALKVAGAILKFVNPPAGTVLTVLSAVLPILWPTNTPTPERVWNDFMTNTGNLIDQTVTAYVRTDANAKMTVVKDYLDQYTTKFNTWKREPNNQSYRTAVITQFNLTSAKLRETAVYFSNLVGYELLLLPIYAQVANFNLLLIRDGLINAQEWSLAASAGDQLYNTMVQYTKEYIAHSITWYNKGLDVLRNKSNGQWITFNDYKREMTIQVLDILALFASYDPRRYPADKIDNTKLSKTEFTREIYTALVESPSSKSIAALEAALTRDVHLFTWLKRVDFWTNTIYQDLRFLSANKIGFSYTNSSAMQESGIYGSSGFGSNLTHQIQLNSNVYKTSITDTSSPSNRVTKMDFYKIDGTLASYNSNITPTPEGLRTTFFGFSTNENTPNQPTVNDYTHILSYIKTDVIDYNSNRVSFAWTHKIVDPNNQIYTDAITQVPAVKSNFLNATAKVIKGPGHTGGDLVALTSNGTLSGRMEIQCKTSIFNDPTRSYGLRIRYAANSPIVLNVSYVLQGVSRGTTISTESTFSRPNNIIPTDLKYEEFRYKDPFDAIVPMRLSSNQLITIAIQPLNMTSNNQVIIDRIEIIPITQSVLDET
modifications: 125I-iodinated (iodo-bead, sites not stated) where used as labelled toxin
In the case of B1, the Bmax stood at 17.2 fmol/µg in assay [1], 35.2 fmol/µg in assay [2], 13.1 fmol/µg in assay [3] and 13.1 in assay [4]. For the same molecule, the K′D (composite dissociation constant) in assay [1] was found to be 0.5 nM; in assay [2], 3.1 nM; in assay [3] it was 6.9 nM; in assay [4], 6.9 nM.

B2: 4BL3PAT (4BRA with D454 replaced with P and AT inserted after position 454, loop 3 of domain II) (protein)
chain: AINSSSVSTALKVAGAILKFVNPPAGTVLTVLSAVLPILWPTNTPTPERVWNDFMTNTGNLIDQTVTAYVRTDANAKMTVVKDYLDQYTTKFNTWKREPNNQSYRTAVITQFNLTSAKLRETAVYFSNLVGYELLLLPIYAQVANFNLLLIRDGLINAQEWSLAASAGDQLYNTMVQYTKEYIAHSITWYNKGLDVLRNKSNGQWITFNDYKREMTIQVLDILALFASYDPRRYPADKIDNTKLSKTEFTREIYTALVESPSSKSIAALEAALTRDVHLFTWLKRVDFWTNTIYQDLRFLSANKIGFSYTNSSAMQESGIYGSSGFGSNLTHQIQLNSNVYKTSITDTSSPSNRVTKMDFYKIDGTLASYNSNITPTPEGLRTTFFGFSTNENTPNQPTVNDYTHILSYIKTDVIPATYNSNRVSFAWTHKIVDPNNQIYTDAITQVPAVKSNFLNATAKVIKGPGHTGGDLVALTSNGTLSGRMEIQCKTSIFNDPTRSYGLRIRYAANSPIVLNVSYVLQGVSRGTTISTESTFSRPNNIIPTDLKYEEFRYKDPFDAIVPMRLSSNQLITIAIQPLNMTSNNQVIIDRIEIIPITQSVLDET
modifications: 125I-iodinated (iodo-bead, sites not stated) where used as labelled toxin
In assay [5], B2 returned a Bmax of 9.3 and a K′D (composite dissociation constant) of 0.9 nM.
